Data taken from patent publication US8741844B2, “Use of mutated antithrombins for treating or preventing coagulation disorders” (Universite Paris-Sud XI, priority 2007, dated 2014).
Numbering of substitutions follows the chain as printed. In names and notes the source's numbering stands.

Test system: pentasaccharide bound plasma antithrombin (plasma anti-factor Xa activity), HUVEC surface
Assay: Rotachrom heparin anti factor Xa assay after pre-incubation of pentasaccharide containing plasma-mutated antithrombin mixture on HUVEC surface
Type: cell-based, human
Conditions: for virtual pentasaccharide concentration (residual anti-factor Xa activity): 3 μg/mL pentasaccharide
Protocol: Finally to evaluate effect of mutated antithrombin on anti-factor Xa activity in conditions as close as possible to in vivo conditions, Rotachrom® heparin method is used to test anti-factor Xa activity in plasma pre-incubated with mutated antithrombin (0-0.6 g/L, preferably 0.15-0.6 g/L in kinetic buffer), during 30 min at 37° C. on human umbilical vein endothelial cells (HUVEC) in culture. Cells are inoculated at 20 000 cells/cm^2 in 96 well plate and grown to confluence for 24 hours in EGM-2 media (Clonetics, Cambrex). After two wash with phosphate buffer saline (Gibco, Invitrogen) cells are starved for 4 hours in EBM-2 media (Clonetics, Cambrex) and then washed again twice in phosphate buffer saline to prevent excess contamination with heparin present in the culture medium. HUVEC coated wells are then used for 30 min incubation of pentasaccharide containing plasma-mutated antithrombin mixture (125 μl/cm^2) before Rotachrom® heparin assay
To evaluate the role of blood-vessel endothelium, or more precisely, the role of glycosamino-glycans exposed on endothelial cell surface, on competition between natural antithrombin and mutated antithrombin for pentasaccharide binding, the same experiment as described above is done but with pre-incubation of pentasaccharide containing plasma-mutated antithrombin mixture on HUVEC surface (FIG. 8).

AT-N135Q-R393H: human antithrombin with substitution at 393 by Histidine and at 135 by Glutamine
virtual pentasaccharide concentration (residual anti-factor Xa activity) (ratio 1/1): 1.66 µg/mL
virtual pentasaccharide concentration (residual anti-factor Xa activity) (ratio 2/1): 0.91 µg/mL
virtual pentasaccharide concentration (residual anti-factor Xa activity) (ratio 4/1): 0.26 µg/mL

B1: AT-N135Q-Pro394: human antithrombin with Proline inserted between 393 and 394 and substitution at 135 by Glutamine (protein, listed as Homo sapiens)
chain: HGSPVDICTAKPRDIPMNPMCIYRSPEKKATEDEGSEQKIPEATNRRVWELSKANSRFATTFYQHLADSKNDNDNIFLSPLSISTAFAMTKLGACNDTLQQLMEVFKFDTISEKTSDQIHFFFAKLNCRLYRKAQKSSKLVSANRLFGDKSLTFNETYQDISELVYGAKLQPLDFKENAEQSRAAINKWVSNKTEGRITDVIPSEAINELTVLVLVNTIYFKGLWKSKFSPENTRKELFYKADGESCSASMMYQEGKFRYRRVAEGTQVLELPFKGDDITMVLILPKPEKSLAKVEKELTPEVLQEWLDELEEMMLVVHMPRFRIEDGFSLKEQLQDMGLVDLFSPEKSKLPGIVAEGRDDLYVSDAFHKAFLEVNEEGSEAAASTAVVIAGRPSLNPNRVTFKANRPFLVFIREVPLNTIIFMGRVANPCVK
virtual pentasaccharide concentration (residual anti-factor Xa activity) (ratio 1/1): 1.69 µg/mL
virtual pentasaccharide concentration (residual anti-factor Xa activity) (ratio 2/1): 0.94 µg/mL
virtual pentasaccharide concentration (residual anti-factor Xa activity) (ratio 4/1): 0.27 µg/mL

B2: AT-Pro394: human antithrombin with insertion of a Proline between positions 393 and 394 (protein, listed as Homo sapiens)
chain: B1 chain with Q135N
effect on anti-factor Xa activity of pentasaccharide (over-dosing conditions): decreases anti-factor Xa activity
